{"source": "paper PMC10385363", "about": "“Enhancing the Catalytic Activity of Glycolate Oxidase from Chlamydomonas reinhardtii through Semi-Rational Design” (Microorganisms, 2023)", "molecules": {"B1": {"name": "GST-GSG-CreGO (glycolate oxidase CreGO) (Chlamydomonas reinhardtii) (protein)", "chain": "MADLSFLNLEEVEEEAKKVMPKMAFDYYSTGSDTCYTVGENRSCFSRYLLLPRMLRNVSRVDTSHELFGIRSSMPVWVAPMAMHGLAHPGREVATCRAAAAAGVPFTFSTVATSSLQEIQETGHDNRIFQLYVIRNREVVRRWVTEAESRGFKALMVTVDAQRLGNREADARNKFTLPPGLALRNLEYLSSASTVQARDSQDGSGLMKLFTSEVDDSLTWEFIPWLRGVTKLPIIVKGLLSPADAELAVQYGVDGIVVSNHGGRQLDYAPSGLHMLPAVVAAVRGCGSSIPVLVDGGVRRGTDVIKALALGASGVLLGRPVLYGLAVGGQAGVERVLQLLRSEIELSMALAGCSSVQQIGPQLLLPAPSAGPAPPMPAAQLCKL"}}, "key": {"[1]": {"biological_target": "T1, GST-GSG-CreGO (glycolate oxidase CreGO) (Chlamydomonas reinhardtii, UniProt F8WQN2, Y27S/V111G, form not given)", "T1 construct": "gene CHLRE_03g171300v5", "T1 sequence (F8WQN2 whole entry Y27S/V111G, form open)": "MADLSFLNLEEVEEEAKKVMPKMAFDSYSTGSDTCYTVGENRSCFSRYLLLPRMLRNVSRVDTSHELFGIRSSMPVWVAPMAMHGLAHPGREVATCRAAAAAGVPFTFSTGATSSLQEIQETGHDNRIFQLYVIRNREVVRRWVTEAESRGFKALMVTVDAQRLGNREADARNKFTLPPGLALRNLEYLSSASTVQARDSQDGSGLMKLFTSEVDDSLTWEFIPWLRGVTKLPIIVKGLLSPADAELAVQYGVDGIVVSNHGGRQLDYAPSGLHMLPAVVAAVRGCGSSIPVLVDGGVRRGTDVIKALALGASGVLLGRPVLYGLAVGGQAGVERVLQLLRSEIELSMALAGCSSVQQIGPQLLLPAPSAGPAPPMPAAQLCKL", "settings": "read-out: GST-GSG-CreGO-Y27S/V212R/V111G; 10 mM phenylhydrazine, 100 mM PBS pH 6.5, 40 °C; O2 as co-substrate; substrate range 0-100 mM; V111G is misprinted V11G in parts of the text"}, "purified protein": {"substrate": "O=C(O)CO", "assay": "purified protein", "settings": "10 mM phenylhydrazine, 100 mM PBS pH 6.5, 40 °C, O2 as co-substrate, substrate range 0-100 mM"}}}
{"molecule": "O=C(O)CO", "note": "[sodium glycolate]", "values": [{"measurement": "Km", "setting": "[1]", "result": "600 ± 40", "unit": "µM"}]}
{"molecule": "B1", "values": [{"measurement": "Km", "setting": "purified protein", "result": "1000 ± 50", "unit": "µM"}, {"measurement": "Vmax", "setting": "purified protein", "result": 7.2, "unit": "µmol/min/mg"}, {"measurement": "kcat", "setting": "purified protein", "result": 4.9, "unit": "s⁻¹"}, {"measurement": "kcat/Km", "setting": "purified protein", "result": 4900, "unit": "M⁻¹ s⁻¹"}]}
